# The supplement of paper PMC10567573
# ± gives the standard deviation.
# Assay: protein stability index of a GFP-peptide fusion (GPS, HEK-293T) (PSI 1-6); higher = more stable
# Settings: c terminus: a fixed tail appended
# 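Further: 24-mer peptide tiles fused after GFP, lentivirally expressed, FACS-sorted into six equal bins by GFP/DsRed ratio, decoded by Illumina sequencing, PSI is the read-weighted mean bin number.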
Sequence,protein stability index (treatment: DMSO),"protein stability index (treatment: MLN4924 1 uM, 8 h)"
TAVGAILAGGLCVGIYATNSAEAC [ACSBG2],2.35 ± 0.12,2.84 ± 0.75
TCADRDNLTRRFSDLGFEVKCFND [CASP6],2.96 ± 0.32,3.24 ± 0.21
TDIDLQTIDNDIVSMEIFFKAWLH [M1AP],2.39 ± 0.33,2.34 ± 0.45
TDLAQQQGGGNGQQQQAMSFAILR [KCNA4],3.96 ± 0.1,3.81 ± 0.35
TDLKTLCCEFLEGCIAAENCIGIR [GAN],2.35 ± 0.4,2.48 ± 0.2
TEDGKLDIWSKSNYQVFQKVTDHA [MED27],3.67 ± 0.27,3.77 ± 0.42
TEFTRFLCSSPLEAETPPNGPDCG [ATE1],4.66 ± 0.086,4.52 ± 0.17
TEMIITKAGRRMFPACRVSVTGLD [TBX6],2.31 ± 0.3,2.2 ± 0.22
TENSALQLQVTEREEVRGRELTGL [LMNB1],5.14 ± 0.2,5.13 ± 0.28
TEQFTAMRDLYMKNGQGFALVYSI [RAP1B],3.25 ± 1,2.96 ± 0.5
TFDHEHHTTIVATRHYRPPEVILE [CLK3],3.34 ± 0.19,3.29 ± 0.17
TGACGEAMAAAEGSSGPAGLTLGR [SEPHS2],3.78 ± 0.082,3.87 ± 0.055
TGLSGGKRPSQEEDTQSIGPKVQR [CRY1],5 ± 0.33,5.04 ± 0.23
THRLKDGSTMLIEAAKGGHTSVVC [ANKRD17],2.51 ± 0.33,2.56 ± 0.33
THSSLSQELQARLQTVTREKEELL [CCDC89],4.89 ± 0.35,4.68 ± 0.22
TIGNLVPQKTYSVKVLAFTSIGDG [PTPRD],2.39 ± 0.16,2 ± 0.33
TIPATLLVDHVGSKTFLCIGSSVM [SLC2A12],2.69 ± 0.5,2.34 ± 0.44
TIQKGSYTFVPWLLSFKRGSALEE [TNFSF13B],2.11 ± 0.15,2.04 ± 0.22
TKADIGTPSNFQHIGHVGWDPNTG [WASL],3.81 ± 0.21,3.85 ± 0.18
TLAVTCQLPIDRGGGEGKAMYIDT [RAD51],3.14 ± 0.25,3.33 ± 0.32
TLLAVGCNDGRIVIWDFLTRGIAK [RBBP5],2.65 ± 0.51,2.55 ± 0.84
TLSRPPPAQVPREVLKVQTHLENP [TFE3],4.3 ± 0.11,4.41 ± 0.19
TMELRNYFSLYCLHQETQLIHVYL [SNX8],3.41 ± 0.67,2.94 ± 0.72

Sequence,protein stability index (treatment: DMSO),"protein stability index (treatment: MLN4924 1 uM, 8 h)"
TMKESLTTREIRRQEAIYEMSRGE [NET1],4.46 ± 0.26,4.68 ± 0.33
TNPDLIIVCAQSSQSLWNRLSVLL [SMG5],2.59 ± 0.54,2.49 ± 0.64
TPAPPLWIGLFLVATGSQQSLAQP,2.57 ± 0.23,2.94 ± 0.74
TPPTPAPTSGIVGALMEVMQKRSK [WASL],4.55 ± 0.12,4.65 ± 0.25
TPSNFQHIGHVGWDPNTGFDLNNL [WASL],3.24 ± 0.3,3.47 ± 0.4
TPTLKVFMHENLYFTNRKVNSVCW [DCAF4],2.26 ± 0.4,1.95 ± 0.22
TPVPTITANVTSVPVPPAAAPPPP [BRD3],4.92 ± 0.17,5.04 ± 0.17
TQHKFICEQCGKCKCGECTAPRTL [SPRY1],4 ± 0.22,3.87 ± 0.18
TRGDADMYDLPKKEDALLYQSKGY [EMD],4.19 ± 0.14,4.38 ± 0.15
TRKQAAKKVAPLMAKAIRDYKGRF [ELOA2],3.25 ± 0.37,3.39 ± 0.36
TRRTLKGHGNKVLCMDWCKDKRRI [GNB5],3.02 ± 0.37,3.25 ± 0.23
TRTTSFKGTSPSSKYVKLNVGGAL [KCTD10],3.01 ± 0.41,2.87 ± 0.28
TRYSVAGLSPYSDYEFRVVAVNNI [PTPRD],2.51 ± 0.35,2.61 ± 0.37
TSASLLNAGLSHTEYQIVTDPGDV [SLC2A12],4.42 ± 0.16,4.76 ± 0.15
TSCLKKREEMKLKECVSILPRKES [TNFSF13B],4.42 ± 0.15,4.5 ± 0.15
TSHRRVTDVRGLEEFLSAMQSARG [PLEKHN1],3.33 ± 0.31,3.42 ± 0.26
TSPALLQGTAEEDHVDLSLSCTLV [CDKN1A],3.85 ± 0.13,3.85 ± 0.18
TSYKPYLNRDEEIIKQLQKGVQQK [DENND6A],3.34 ± 0.25,3.27 ± 0.34
TTQSAEVGAAETTLTELRRTVQSL [KRT18],4.63 ± 0.22,4.55 ± 0.4
TVKMLRTQRPAMVQTEDQYQFSYR [PTPRD],2.84 ± 0.37,2.97 ± 0.33
TVLKQIAPEYFEKNEPYLEAACND [DENND6A],3.09 ± 0.05,3.26 ± 0.43
TVNIHRLHVKRSMGWKKACDELEL [ZMYND11],2.61 ± 0.32,2.77 ± 0.36
